In test [1] the target is T1, human 4-1BB (human, UniProt Q07011 24-255).
T1 construct: whole, on cells; Also used here for the native receptor on human T cells in the co-stimulation assay; also called CD137; h4-1BB
Nature of the test: binding to 293T cells expressing human 4-1BB.

Test [2] concerns the target T1, human 4-1BB. Nature of the test: flow cytometry, staining of 293T cells transfected with human 4-1BB, compared with untransfected 293T cells.

T1 sequence (Q07011 24-255): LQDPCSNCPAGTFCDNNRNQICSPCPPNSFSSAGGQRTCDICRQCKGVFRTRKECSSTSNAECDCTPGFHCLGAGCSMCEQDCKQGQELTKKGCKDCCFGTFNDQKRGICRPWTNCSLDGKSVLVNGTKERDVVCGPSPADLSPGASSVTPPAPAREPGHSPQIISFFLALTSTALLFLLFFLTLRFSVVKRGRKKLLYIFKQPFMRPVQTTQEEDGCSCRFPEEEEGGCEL

B1: ZW106 (antibody, V domains shown)
VH: QVQLQQPESELVRPGGSVKLSCKASGYTFTSYWMDWVKQRHGQGLEWIGNIYPDSGGTNYAEKFKSKATLTVDTSSSTAYMHLSSLTSEDSAVYYCTREEALGGYYELTYWGQGTLVTVSA
VL: DIVLTQSPASLPVSLGQRATISCRASQSVSTSSYSYMHWYQQKPGQPPKLLIKYASNLESGVPARFSGSGSGTDFTLNIHPVEEEDTATYYCQHSWEIPYTFGGGTKLEIE
notes: Mouse monoclonal antibody against human 4-1BB; also called clone ZW106; 4-1BB mAb
For the molecule B1, the binding result in the test with human 4-1BB [1] is reported as “binds”.

B2: ZW103 (antibody, V domains shown)
VH: QVQLQQSGAELVRPGVSVKISCKGSGYTFTDYAMHWVKQSHVKSLEWIGGISTYNGDASYNQKFKGKATMTVDKSSRTAYMELVRLTSEDSAIYYCAPSNYGYAMDYWGQGTSVTVSS
VL: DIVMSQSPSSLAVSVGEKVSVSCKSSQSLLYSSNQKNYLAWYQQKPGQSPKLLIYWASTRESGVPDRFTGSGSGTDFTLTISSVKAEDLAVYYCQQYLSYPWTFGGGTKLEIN
notes: Mouse monoclonal antibody against human 4-1BB from a hybridoma; also called clone ZW103; 4-1BB mAb
With B2, in the test with human 4-1BB [2], the binding result was “binds”.

B3: ZW104 (antibody, V domains shown)
VH: QVQLQQSGAELARPGASVKMSCKASGYIFTTYAMHWVKQRPGQGLEWIGYINPTTVYTIYNQKFKDKATLTADKSSSTAYMQLSSLTSEDSAVYYCARLGGHWYFDVWGAGTTVTVSS
VL: not shown
notes: Mouse monoclonal antibody against human 4-1BB from a hybridoma; also called clone ZW104; 4-1BB mAb
With B3, the binding result in the test with human 4-1BB [2] is on record as “binds”.

B4: ZW107 (antibody, V domains shown)
VH: QVQLQQSGAELVRPGTSVKISCKASGYAFTNYWLGWVKQRPGHGLEWIGDIYPGNGNNYYSEKFKDKATLTADKSSSTVYIRLSSLTSEDSAVYFCARHGSFRSAMDYWGQGTSVTVSS
VL: DIQMTQSPASPSASVGETVTITCRASENIYSYLAWYQQKQGKSPQLLVYNAKTLADGVPSRFSGSGSGTQFSLKINSLQPEDFGSYYCQHHYGTPPTFGGGTKLEIK
notes: Mouse monoclonal antibody against human 4-1BB; also called clone ZW107; 4-1BB mAb
On to B4, for which the binding result with human 4-1BB [1] is on record as “binds”.

(Values after patent US20190284292A1 (IMMUNOAH THERAPEUTICS, published 2019).)
